Data from US9260507B2, “Peptide promoting cell adhesion and migration” (Symatese, priority 2009, dated 2016).
Ends that are not written are not given here. * marks the point of attachment. Biotin = O=C1N[C@H]2[C@H](CS[C@H]2CCCCC(=O)*)N1

T1: syndecan-1 (Homo sapiens, UniProt P18827)
T1 construct: endogenous in cells; host or cells: primary normal human keratinocytes from foreskin biopsies
T1 sequence (P18827 23-310): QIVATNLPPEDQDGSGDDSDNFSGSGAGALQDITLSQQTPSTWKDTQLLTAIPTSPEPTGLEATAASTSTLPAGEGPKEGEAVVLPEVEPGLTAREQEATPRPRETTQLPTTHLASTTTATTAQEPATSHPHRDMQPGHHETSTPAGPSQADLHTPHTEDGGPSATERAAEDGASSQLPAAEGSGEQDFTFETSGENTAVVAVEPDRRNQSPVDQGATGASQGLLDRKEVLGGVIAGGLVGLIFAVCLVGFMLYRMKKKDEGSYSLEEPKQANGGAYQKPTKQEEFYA

T2: syndecan-1 from lysates of normal human keratinocytes or normal human fibroblasts (human, UniProt P18827 23-310, limits assumed, carries heparan sulphate and chondroitin sulphate chains during binding; stripped with heparitinase I and chondroitinase ABC before the immunoblot)
T2 construct: Endogenous proteoglycan of cell lysates; also called syndecan-1 receptor
T2 sequence (looked up): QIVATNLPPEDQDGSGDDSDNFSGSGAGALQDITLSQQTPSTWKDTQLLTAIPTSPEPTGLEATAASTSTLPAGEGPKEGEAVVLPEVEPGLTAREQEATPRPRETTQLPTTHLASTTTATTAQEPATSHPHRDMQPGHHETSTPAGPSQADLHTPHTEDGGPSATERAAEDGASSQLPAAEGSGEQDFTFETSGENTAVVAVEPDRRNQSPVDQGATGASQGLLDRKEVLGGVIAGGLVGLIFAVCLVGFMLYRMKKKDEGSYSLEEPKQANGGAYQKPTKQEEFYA


What was measured:
syndecan-1 = target: T1, syndecan-1; assay: Affinity chromatography (pull-down) with peptide-coated beads and syndecan-1 immunodetection; format: binding; conditions: lysate of normal human keratinocytes, 2 mg; immunoblotting with antibody H174
Method: (A) A lysate of normal human keratinocytes was prepared as described in the Materials and Methods section and 2 mg of the lysate were incubated with neutravidin beads not coated or coated with the biotinylated peptides KKLRIKSKEK (SEQ ID NO: 1), PSGKPKSLP (SEQ ID NO: 19) and TSVTPKQSL (SEQ ID NO: 20). After washing, the material bound to the beads was digested with a mixture of heparitinase I and chondroitinase ABC to release the protein part of the syndecan-1 from the glycosaminoglycans. The samples were then analysed by SDS PAGE electrophoresis in an 8% acrylamide gel under non-reducing conditions and by immunoblotting with polyclonal anti-syndecan antibody H174. (B) A lysate of normal human keratinocytes was prepared and 2 mg of the lysate were incubated with neutravidin beads not coated or coated with the biotinylated peptide KKLRIKSKEK (SEQ ID NO: 1), or with sepharose beads coated with the whole LG4/5 fragment. After washing, the material bound to the beads was digested with a mixture of heparitinase I and chondroitinase ABC to release the protein part of the syndecan-1 from the glycosaminoglycans. The samples were then analysed by SDS PAGE electrophoresis in an 8% acrylamide gel under non-reducing conditions and by immunoblotting with polyclonal anti-syndecan antibody H174. (A, B) The position of molecular weight markers is shown on the left.
(§1) A series of point mutations was introduced into the peptide KKLRIKSKEK (SEQ ID NO: 1) by successively replacing each amino acid by an alanine (A). […] The samples were then analysed by SDS PAGE electrophoresis in an 8% acrylamide gel under non-reducing conditions and by immunoblotting with polyclonal anti-syndecan antibody H174. […]
as §1, with “point or multiple” for “point”, “by” for “by successively”, “one or more lysines (K)” for “each amino acid”, “a glutamine (Q).” for “an alanine (A).”

[1] = system: normal human keratinocytes; assay: Cell viability test (XTT); conditions: 100 to 1 μg/ml, medium renewed every two days (repeated twice)
Method: NHKs were seeded in 96-well plates at 10^4 cells per well. After 24 hours, the culture media were removed and replaced with KBM-2 medium containing the concentrations of peptide [sequence] (SEQ ID NO: 1) (upper curve) or LG4/5 protein (lower curve) shown. After 48 h of contact at 37° C. the media were removed and this step was repeated twice. After 48 h of contact at 37° C. the media were replaced by XTT reagent. The plates were then placed in an incubator at 37° C. and the absorption was read after 6 hours. Controls with neither peptide nor protein were made on the same plate.
The effect of the peptide on the cell viability of the normal human keratinocytes was analysed using a colorimetric assay (XTT Cell Proliferation Kit, Roche Diagnostics, Meylan, France). A control with the LG4/5 protein was carried out in parallel. The chemical reaction of the test is based on the production of NADPH in living cells reducing yellow tetrazolium XTT salts to orange formazan salts. Absorption at 490 nm is measured using an ELISA plate reader. […] In this case, cell viability was calculated from the formula: % viability=(Abs. cells with peptide/Abs. control cells)×100.

HT1080 cells = assay: Cell adhesion test (crystal violet colorimetric) on immobilised peptide, HT1080 cells; format: cell-based, Human; conditions: microscopy, FIG. 6B
Method: (A, B) Dose-dependent adhesion of normal human keratinocytes and cells of the HT1080 strain to the peptide KKLRIKSKEK (SEQ ID NO: 1) and to the LG4/5 protein. The peptide (A) and the protein LG4/5 (B) were immobilised on 96-well plates at the concentrations indicated on the abscissa. 6·10^4 cells were deposited in each well and the plates were incubated at 37° C. for 1 hour. After washing, the adherent cells were fixed and cell adhesion was measured as described in the methodology section. (C) Observation of normal human keratinocytes and HT1080 cells adhering to KKLRIKSKEK peptide (SEQ ID NO: 1) and to the LG4/5 protein. The observation was made with a Zeiss Axiovert 40 microscope equipped with a PlasDic interference unit. 50 μm bar.
(A) A decreasing range of peptides KKLRIKSKEK (SEQ ID NO: 1) and NSFMALYLSKGR (SEQ ID NO: 21) was immobilised in 96-well Microlon plates and the amount actually adsorbed was determined by protein assay with reference to a corresponding range of peptides made extemporaneously. The quantities of peptide tested are indicated on the abscissa of the graph. 6·10^4 cells were deposited in each well and the plates were incubated at 37° C. for 1 hour. After washing, the adherent cells were fixed and cell adhesion was measured as described in the methodology section. […]

[2] = target: T2, syndecan-1 from lysates of normal human …; assay: pull-down from normal human keratinocyte lysate, immunoblot with H174
Method: To identify the nature of the cell receptor binding to the peptide […] (SEQ ID NO: 1), affinity chromatography or 'pull-down' assays were performed by incubating beads coated with peptides with cell lysates. Lysates of primary keratinocytes or fibroblasts were made using a lysis buffer of 1% triton X-100 in PBS, pH 7.5, containing N-ethylmaleimide and phenylmethylsulphonylfluoride 50 mM. The wild type peptide […] (SEQ ID NO: 1) and the mutated peptides were bound to biotin at their amino-terminal ends and 100 µg of each biotinylated peptide were attached to agarose-neutravidin beads (Perbio Science, Bezons, France) by incubation for 16 hours at +4° C. The beads were then incubated with 2 mg of cell lysate for 2 hours at +4° C. After washing 3 times with the lysis buffer, the beads were transferred into a digestion buffer (20 mM sodium acetate, 5 mM CaCl2, pH 7.0) containing 8 mU/ml heparitinase I and 50 mU/ml of chondroitinase ABC (Seikagaku America, Coger, Paris, France) for 2 hours at 25° C. This treatment strips the protein part of syndecan-1 of glycosaminoglycans, making it easier to analyse by immunoblotting. The samples were then analysed by SDS PAGE electrophoresis in an 8% acrylamide gel under non-reducing conditions and by immunoblotting with polyclonal anti-syndecan antibody H174 (Santa Cruz Biotechnology, Le Perray en Yvelines, France).

Row | Binding of syndecan-1 to the biotinylated peptide on beads (syndecan-1) | binding result [2] | Molecule | also measured
1 | proved capable of binding syndecan-1 |  | KKLRLRSKER [M2, from the murine laminin alpha3 chain] | 
2 |  |  | KKLRIKSKEK [KKLRIKSKEK] | Cytotoxic effect on epidermal keratinocytes (percentage of viable cells vs controls) [1]: neither peptide KKLRIKSKEK (SEQ ID NO: 1) nor protein LG4/5 has any long-term cytotoxic effect
3 | did not retain the syndecan-1 |  | TSVTPKQSL | 
4 | did not retain the syndecan-1 |  | PSGKPKSLP | 
5 |  |  | NSFMALYLSKGR | Morphology of HT1080 cells adhering to the peptide (HT1080 cells): no cytoplasmic prolongations were noted
6 |  | no binding | TSVTPKQSL (also: biotinylated) [biotinylated peptide TSVTPKQSL (SEQ ID NO: 20)] | 
7 |  | no binding | Biotin-AKLRIKSKEK [mutated peptide A1 (alanine in place of amino acid 1 of …)] | 
8 |  | no binding | Biotin-KKLAIKSKEK [mutated peptide A4 (alanine in place of amino acid 4 of …)] | 
9 |  | no binding | Biotin-KKLRIKAKEK [mutated peptide A7 (alanine in place of amino acid 7 of …)] | 
10 |  | no binding | PSGKPKSLP (also: biotinylated) [biotinylated peptide PSGKPKSLP (SEQ ID NO: 19)] | 
